Patent publication US20210292412A1 (published 2021)

T1: recombinant N-terminal extracellular domain protein of human CD47 molecule (hCD47) (UniProt Q08722 19-135)
T1 chain: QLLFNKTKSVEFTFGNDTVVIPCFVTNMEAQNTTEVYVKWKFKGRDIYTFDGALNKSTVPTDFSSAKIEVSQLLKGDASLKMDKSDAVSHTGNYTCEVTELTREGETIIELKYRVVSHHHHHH


What was measured:
[1] = biological target: T1, recombinant N-terminal extracellular …; assay: ELISA blocking of CD47-SIRPα
[2] = biological target: T1, recombinant N-terminal extracellular …; assay: BLI; affinity
[3] = biological target: T2, human CD47 on CCRF-CEM cells (CD47 positive cells) (human, UniProt Q08722 19-323); assay: FACS blocking of CD47-SIRPα
[4] = biological target: T1, recombinant N-terminal extracellular …; assay: BLI; avid
[5] = biological target: T2, human CD47 on CCRF-CEM cells (CD47 …); assay: FACS binding
[6] = biological target: T1, recombinant N-terminal extracellular …; assay: ELISA binding

Row | Binder | IC50 [1] [nM] | Kd [2] [nM] | IC50 [3] [nM] | Kd [4] [nM] | EC50 [5] [nM] | EC50 [6] [nM]
1 | h15G6 VH-v5/VK-v1 (antibody, V domains shown) VH: QVQLVQSGAEVKKPGASVKVSCKASGYTFTDYYIHWVRQAPGQGLEWMGWIYPGSGNTKYNEKFQGRVTMTRDTSISTAYMELSSLRSDDTAVYYCARRREDSFDYWGQGTLVTVSS VL: DIVMTQSPDSLAVSLGERATINCKSSQSLLYSSNQKNYLAWYQRKPGQPPKLLIYWASNRESGVPDRFSGSGSGTDFTLTISSLQAEDVAVYYCQQFYRYPLTFGQGTKVEIK | 0.118 | 23 | 0.0488 | 0.2 | 0.0483 | 0.0314
2 | h15G6 VH-v1/VK-v1 (antibody, V domains shown) VH: QIQLVQSGAEVKKPGASVKVSCKASGYTFTDYYIHWVRQAPGQGLEWMGWIYPGSGNTKYNEKFQGRVTLTVDTSSSTVYMELSSLRSDDTAVYFCARRREDSFDYWGQGTTLTVSS VL: DIVMTQSPDSLAVSLGERATINCKSSQSLLYSSNQKNYLAWYQRKPGQPPKLLIYWASNRESGVPDRFSGSGSGTDFTLTISSLQAEDVAVYYCQQFYRYPLTFGQGTKVEIK | 0.0942 | 18 | 0.0686 | 0.41 | 0.0602 | 0.092

The next lines start with the values.

Row | IC50 [1] [nM] | Kd [2] [nM] | IC50 [3] [nM] | Kd [4] [nM] | EC50 [5] [nM] | EC50 [6] [nM] | Binder
3 | 0.053 | 41 | 0.134 | 0.6 | 0.0482 | 0.0283 | h15G6 VH-v7/VK-v1 (antibody, V domains shown) VH: QVQLVQSGAELKKPGASVKVSCKASGYTFTDYYIHWVRQAPGQGLEWMGWIYPGSGNTKYNEKFQGRVTLTVDTSTSTVYMELSSLRSDDTAVYYCARRREDSFDYWGQGTLVTVSS VL: DIVMTQSPDSLAVSLGERATINCKSSQSLLYSSNQKNYLAWYQRKPGQPPKLLIYWASNRESGVPDRFSGSGSGTDFTLTISSLQAEDVAVYYCQQFYRYPLTFGQGTKVEIK
4 | 0.0843 | 56 | 0.0397 | 0.71 | 0.0488 | 0.0229 | h15G6 VH-v7/VK-v2 (antibody, V domains shown) VH: QVQLVQSGAELKKPGASVKVSCKASGYTFTDYYIHWVRQAPGQGLEWMGWIYPGSGNTKYNEKFQGRVTLTVDTSTSTVYMELSSLRSDDTAVYYCARRREDSFDYWGQGTLVTVSS VL: not shown
